Biological target: otc_yeast ARG3 (UniProt P05150)
Sequence (P05150 whole entry): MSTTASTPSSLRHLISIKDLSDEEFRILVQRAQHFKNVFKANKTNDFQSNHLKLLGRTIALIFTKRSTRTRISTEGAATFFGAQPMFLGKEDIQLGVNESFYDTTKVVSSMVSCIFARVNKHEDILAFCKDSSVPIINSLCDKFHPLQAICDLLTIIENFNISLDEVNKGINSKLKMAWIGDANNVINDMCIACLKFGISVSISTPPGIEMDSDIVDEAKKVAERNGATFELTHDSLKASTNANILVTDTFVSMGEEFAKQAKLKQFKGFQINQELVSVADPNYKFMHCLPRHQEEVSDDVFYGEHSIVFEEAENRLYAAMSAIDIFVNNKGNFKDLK

Arginase (Saccharomyces cerevisiae), P00812 C321R;C326T, sequence (P00812 whole entry C321R/C326T): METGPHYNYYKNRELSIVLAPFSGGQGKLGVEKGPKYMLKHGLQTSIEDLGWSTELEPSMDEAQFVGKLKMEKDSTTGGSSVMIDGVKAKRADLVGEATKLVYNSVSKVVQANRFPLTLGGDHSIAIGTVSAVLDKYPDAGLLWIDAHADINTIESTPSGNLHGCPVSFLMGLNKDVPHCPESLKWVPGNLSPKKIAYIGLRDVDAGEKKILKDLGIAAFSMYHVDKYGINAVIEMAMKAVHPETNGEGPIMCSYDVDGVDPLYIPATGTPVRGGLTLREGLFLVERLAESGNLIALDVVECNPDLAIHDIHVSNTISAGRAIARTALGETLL

effect of a mutation on the interaction: decreasing interaction
Substance: Arginase (Saccharomyces cerevisiae), P00812 C321R;C326T

Reference: IntAct's records for PubMed 12679340
